Article PMC10540216, “Activity Guided Azide-methyllysine Photo-trapping for Substrate Profiling of Lysine Demethylases” (Journal of the American Chemical Society, 2023)

test system: KDM4A-I71AzF; experiment: CASI: photo-crosslinking with HEK293T cell extracts, StrepTactin enrichment and LC-MS/MS proteomics; type: binding, human; settings: sheet "Final results but with 0.01";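 note: lysates from HEK293T cells pretreated with a KDM4 inhibitor to raise proteome methylation, affinity-purified after ±UV, gel-resolved, trypsin-digested, with exclusive unique peptides per protein averaged per condition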

Row | Molecule | Fold change (+UV/-UV)
1 | DDX21_HUMAN (protein, UniProt Q9NR30 1-783, looked up) Nucleolar RNA helicase 2: MPGKLRSDAGLESDTAMKKGETLRKQTEEKEKKEKPKSDKTEEIAEEEETVFPKAKQVKKKAEPSEVDMNSPKSKKAKKKEEPSQNDISPKTKSLRKKKEPIEKKVVSSKTKKVTKNEEPSEEEIDAPKPKKMKKEKEMNGETREKSPKLKNGFPHPEPDCNPSEAASEESNSEIEQEIPVEQKEGAFSNFPISEETIKLLKGRGVTFLFPIQAKTFHHVYSGKDLIAQARTGTGKTFSFAIPLIEKLHGELQDRKRGRAPQVLVLAPTRELANQVSKDFSDITKKLSVACFYGGTPYGGQFERMRNGIDILVGTPGRIKDHIQNGKLDLTKLKHVVLDEVDQMLDMGFADQVEEILSVAYKKDSEDNPQTLLFSATCPHWVFNVAKKYMKSTYEQVDLIGKKTQKTAITVEHLAIKCHWTQRAAVIGDVIRVYSGHQGRTIIFCETKKEAQELSQNSAIKQDAQSLHGDIPQKQREITLKGFRNGSFGVLVATNVAARGLDIPEVDLVIQSSPPKDVESYIHRSGRTGRAGRTGVCICFYQHKEEYQLVQVEQKAGIKFKRIGVPSATEIIKASSKDAIRLLDSVPPTAISHFKQSAEKLIEEKGAVEALAAALAHISGATSVDQRSLINSNVGFVTMILQCSIEMPNISYAWKELKEQLGEEIDSKVKGMVFLKGKLGVCFDVPTASVTEIQEKWHDSRRWQLSVATEQPELEGPREGYGGFRGQREGSRGFRGQRDGNRRFRGQREGSRGPRGQRSGGGNKSNRSQNKGQKRSFSKAFGQ | 1
2 | DHX15_HUMAN (protein, UniProt O43143 1-795, looked up) ATP-dependent RNA helicase …: MSKRHRLDLGEDYPSGKKRAGTDGKDRDRDRDREDRSKDRDRERDRGDREREREKEKEKELRASTNAMLISAGLPPLKASHSAHSTHSAHSTHSTHSAHSTHAGHAGHTSLPQCINPFTNLPHTPRYYDILKKRLQLPVWEYKDRFTDILVRHQSFVLVGETGSGKTTQIPQWCVEYMRSLPGPKRGVACTQPRRVAAMSVAQRVADEMDVMLGQEVGYSIRFEDCSSAKTILKYMTDGMLLREAMNDPLLERYGVIILDEAHERTLATDILMGVLKEVVRQRSDLKVIVMSATLDAGKFQIYFDNCPLLTIPGRTHPVEIFYTPEPERDYLEAAIRTVIQIHMCEEEEGDLLLFLTGQEEIDEACKRIKREVDDLGPEVGDIKIIPLYSTLPPQQQQRIFEPPPPKKQNGAIGRKVVVSTNIAETSLTIDGVVFVIDPGFAKQKVYNPRIRVESLLVTAISKASAQQRAGRAGRTRPGKCFRLYTEKAYKTEMQDNTYPEILRSNLGSVVLQLKKLGIDDLVHFDFMDPPAPETLMRALELLNYLAALNDDGDLTELGSMMAEFPLDPQLAKMVIASCDYNCSNEVLSITAMLSVPQCFVRPTEAKKAADEAKMRFAHIDGDHLTLLNVYHAFKQNHESVQWCYDNFINYRSLMSADNVRQQLSRIMDRFNLPRRSTDFTSRDYYINIRKALVTGYFMQVAHLERTGHYLTVKDNQVVQLHPSTVLDHKPEWVLYNEFVLTTKNYIRTCTDIKPEWLVKIAPQYYDMSNFPQCEAKRQLDRIIAKLQSKEYSQY | 1.071
3 | RPN1_HUMAN (protein, UniProt P04843 24-607, looked up) Dolichyl-diphosphooligosacchar …: ASSEAPPLINEDVKRTVDLSSHLAKVTAEVVLAHLGGGSTSRATSFLLALEPELEARLAHLGVQVKGEDEEENNLEVRETKIKGKSGRFFTVKLPVALDPGAKISVIVETVYTHVLHPYPTQITQSEKQFVVFEGNHYFYSPYPTKTQTMRVKLASRNVESYTKLGNPTRSEDLLDYGPFRDVPAYSQDTFKVHYENNSPFLTITSMTRVIEVSHWGNIAVEENVDLKHTGAVLKGPFSRYDYQRQPDSGISSIRSFKTILPAAAQDVYYRDEIGNVSTSHLLILDDSVEMEIRPRFPLFGGWKTHYIVGYNLPSYEYLYNLGDQYALKMRFVDHVFDEQVIDSLTVKIILPEGAKNIEIDSPYEISRAPDELHYTYLDTFGRPVIVAYKKNLVEQHIQDIVVHYTFNKVLMLQEPLLVVAAFYILFFTVIIYVRLDFSITKDPAAEARMKVACITEQVLTLVNKRIGLYRHFDETVNRYKQSRDISTLNSGKKSLETEHKALTSEIALLQSRLKTEGSDLCDRVSEMQKLDAQVKELVLKSAVEAERLVAGKLKKDTYIENEKLISGKRQELVTKIDHILDAL | 3
